Data taken from patent publication US20240043537A1.

Tests used:
[1] = target: CD3 on T-cells (UniProt P07766); assay: cell-based or functional assay
[2] = target: CD3 (as used for the BIACORE kinetics of Table 11) (UniProt P07766); assay: SPR (BIACORE)
CD3 (as used for the BIACORE kinetics of Table 11), sequence (P07766 23-126): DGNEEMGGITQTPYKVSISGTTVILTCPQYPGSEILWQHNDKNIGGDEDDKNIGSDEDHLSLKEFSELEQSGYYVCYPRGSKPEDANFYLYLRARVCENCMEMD

CD3 on T-cells, sequence (P07766 23-207): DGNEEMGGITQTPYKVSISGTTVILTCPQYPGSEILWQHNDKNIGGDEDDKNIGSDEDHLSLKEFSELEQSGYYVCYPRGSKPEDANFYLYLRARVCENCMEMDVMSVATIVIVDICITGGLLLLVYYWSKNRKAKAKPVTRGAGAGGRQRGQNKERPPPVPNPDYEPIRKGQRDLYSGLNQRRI

| EC50 of cytolysis at 18 hours (CTL assay, Pan-T-cells and MOLM-13, E:T = 5:1) [1] [ng/mL] | EC50 of cytolysis at 42 hours (CTL assay, Pan-T-cells and MOLM-13, E:T = 5:1) [1] [ng/mL] | R: ratio of 18 hour EC50 to DART-A-WT (CTL assay, Pan-T-cells and MOLM-13, E:T = 5:1) [1] | R: ratio of 42 hour EC50 to DART-A-WT (CTL assay, Pan-T-cells and MOLM-13, E:T = 5:1) [1] | Kd [2] [nM] | R (KD ratio to DART-A-WT) [2] | R (ka ratio to DART-A-WT) [2] | R (kd ratio to DART-A-WT) [2] | koff [2] [s⁻¹] | kon [2] [M⁻¹ s⁻¹] | Binder | max % CytoTox at 18 hours (CTL assay, Pan-T-cells and MOLM-13, E:T = 5:1) [1] [%] | max % CytoTox at 42 hours (CTL assay, Pan-T-cells and MOLM-13, E:T = 5:1) [1] [%] |
| --- | --- | --- | --- | --- | --- | --- | --- | --- | --- | --- | --- | --- |
| 4.16 | 0.975 | 52.7 | 347 | 107 | 13 | 0.7 | 9.2 | 0.0375 | 352000 | DART-A-M15 (bispecific antibody) chain 1: DFVMTQSPDSLAVSLGERVTMSCKSSQSLLNSGNQKNYLTWYQQKPGQPPKLLIYWASTRESGVPDRFSGSGSGTDFTLTISSLQAEDVAVYYCQNDYSYPYTFGQGTKLEIKGGGSGGGGEVQLVESGGGLVQPGGSLRLSCAASGFTFSEYAMNWVRQAPGKGLEWVGRIRSKYNNYATYYADSVKDRFTISRDDSKNSLYLQMNSLKTEDTAVYYCVRHGNFGNSYVSWFAYWGQGTLVTVSSGGCGGGKVAALKEKVAALKEKVAALKEKVAALKE chain 2: QAVVTQEPSLTVSPGGTVTLTCRSSTGAVTTSNYANWVQQKPGQAPRGLIGGTNKRAPWTPARFSGSLLGGKAALTITGAQAEDEADYYCALWYSNLWVFGGGTKLTVLGGGGSGGGGEVQLVQSGAELKKPGASVKVSCKASGYTFTDYYMKWVRQAPGQGLEWIGDIIPSNGATFYNQKFKGRVTITVDKSTSTAYMELSSLRSEDTAVYYCARSHLLRASWFAYWGQGTLVTVSSGGCGGGEVAALEKEVAALEKEVAALEKEVAALEK | 42.7 | 32 |
| 19.6 | 2.34 | 249 | 832 | 159 | 19 | 0.8 | 16 | 0.065 | 408000 | DART-A-M1 (bispecific antibody) chain 1: DFVMTQSPDSLAVSLGERVTMSCKSSQSLLNSGNQKNYLTWYQQKPGQPPKLLIYWASTRESGVPDRFSGSGSGTDFTLTISSLQAEDVAVYYCQNDYSYPYTFGQGTKLEIKGGGSGGGGEVQLVESGGGLVQPGGSLRLSCAASGFTFSTYAMNWVRQAPGKGLEWVGRIRSKYNNYATYYADSVKDRFTISRDDSKNSLYLQMNSLKTEDTAVYYCVRHGNFGNSYVTWFAYWGQGTLVTVSSGGCGGGKVAALKEKVAALKEKVAALKEKVAALKE chain 2: QAVVTQEPSLTVSPGGTVTLTCRSSTGAVTTSNYANWVQQKPGQAPRGLIGGTNKRAPWTPARFSGSLLGGKAALTITGAQAEDEADYYCALWYSNLWVFGGGTKLTVLGGGGSGGGGEVQLVQSGAELKKPGASVKVSCKASGYTFTDYYMKWVRQAPGQGLEWIGDIIPSNGATFYNQKFKGRVTITVDKSTSTAYMELSSLRSEDTAVYYCARSHLLRASWFAYWGQGTLVTVSSGGCGGGEVAALEKEVAALEKEVAALEKEVAALEK | 32.3 | 32.4 |
| 4.69 | 0.91 | 59.3 | 324 | 205 | 25 | 0.6 | 14 | 0.0588 | 287000 | DART-A-M18 (bispecific antibody) chain 1: DFVMTQSPDSLAVSLGERVTMSCKSSQSLLNSGNQKNYLTWYQQKPGQPPKLLIYWASTRESGVPDRFSGSGSGTDFTLTISSLQAEDVAVYYCQNDYSYPYTFGQGTKLEIKGGGSGGGGEVQLVESGGGLVQPGGSLRLSCAASGFTFSTYGMNWVRQAPGKGLEWVGRIRSKYNNYATYYADSVKDRFTISRDDSKNSLYLQMNSLKTEDTAVYYCVRHGNFGNSYVSWFAYWGQGTLVTVSSGGCGGGKVAALKEKVAALKEKVAALKEKVAALKE chain 2: QAVVTQEPSLTVSPGGTVTLTCRSSTGAVTTSNYANWVQQKPGQAPRGLIGGTNKRAPWTPARFSGSLLGGKAALTITGAQAEDEADYYCALWYSNLWVFGGGTKLTVLGGGGSGGGGEVQLVQSGAELKKPGASVKVSCKASGYTFTDYYMKWVRQAPGQGLEWIGDIIPSNGATFYNQKFKGRVTITVDKSTSTAYMELSSLRSEDTAVYYCARSHLLRASWFAYWGQGTLVTVSSGGCGGGEVAALEKEVAALEKEVAALEKEVAALEK | 41.3 | 30.6 |
| 0.372 | 0.067 | 4.7 | 24 | 12.8 | 1.6 | 1.7 | 2.7 | 0.0111 | 866000 | DART-A-M12 (bispecific antibody) chain 1: DFVMTQSPDSLAVSLGERVTMSCKSSQSLLNSGNQKNYLTWYQQKPGQPPKLLIYWASTRESGVPDRFSGSGSGTDFTLTISSLQAEDVAVYYCQNDYSYPYTFGQGTKLEIKGGGSGGGGEVQLVESGGGLVQPGGSLRLSCAASGFTFSTYAMNWVRQAPGKGLEWVGRIRSKYNNYATYYADSVKDRFTISRDDSKNSLYLQMNSLKTEDTAVYYCVRHGNFGNSYVSYFAYWGQGTLVTVSSGGCGGGKVAALKEKVAALKEKVAALKEKVAALKE chain 2: QAVVTQEPSLTVSPGGTVTLTCRSSTGAVTTSNYANWVQQKPGQAPRGLIGGTNKRAPWTPARFSGSLLGGKAALTITGAQAEDEADYYCALWYSNLWVFGGGTKLTVLGGGGSGGGGEVQLVQSGAELKKPGASVKVSCKASGYTFTDYYMKWVRQAPGQGLEWIGDIIPSNGATFYNQKFKGRVTITVDKSTSTAYMELSSLRSEDTAVYYCARSHLLRASWFAYWGQGTLVTVSSGGCGGGEVAALEKEVAALEKEVAALEKEVAALEK | 49.7 | 31.5 |
| 8.11 | 0.693 | 103 | 247 | 12.7 | 1.6 | 6.1 | 9.6 | 0.0391 | 3.07e+06 | DART-A-M2 (bispecific antibody) chain 1: DFVMTQSPDSLAVSLGERVTMSCKSSQSLLNSGNQKNYLTWYQQKPGQPPKLLIYWASTRESGVPDRFSGSGSGTDFTLTISSLQAEDVAVYYCQNDYSYPYTFGQGTKLEIKGGGSGGGGEVQLVESGGGLVQPGGSLRLSCAASGFTFSTYAMNWVRQAPGKGLEWVGRIRSKYNNYATYYADSVKDRFTISRDDSKNSLYLQMNSLKTEDTAVYYCVRHKNFGNSYVTWFAYWGQGTLVTVSSGGCGGGKVAALKEKVAALKEKVAALKEKVAALKE chain 2: QAVVTQEPSLTVSPGGTVTLTCRSSTGAVTTSNYANWVQQKPGQAPRGLIGGTNKRAPWTPARFSGSLLGGKAALTITGAQAEDEADYYCALWYSNLWVFGGGTKLTVLGGGGSGGGGEVQLVQSGAELKKPGASVKVSCKASGYTFTDYYMKWVRQAPGQGLEWIGDIIPSNGATFYNQKFKGRVTITVDKSTSTAYMELSSLRSEDTAVYYCARSHLLRASWFAYWGQGTLVTVSSGGCGGGEVAALEKEVAALEKEVAALEKEVAALEK | 32.3 | 32.8 |
